PMC7064531

Target: hRpn10^322–366 peptide with Y326 phosphorylated (human) (UniProt P55036)
Experiment: ITC; 25 °C, MicroCal iTC200; E6AP AZUL injected into hRpn10 305-377 (0.0405 mM) or hRpn10 322-366 peptides (0.01 mM) in the cell; 10 mM MOPS pH 6.5, 50 mM NaCl, 5 mM DTT, 10 μM zinc sulfate; one-site fit

E6AP AZUL (amino-terminal zinc-binding domain of ubiquitin E3a ligase), amino acids 24 to 87, sequence (Q05086 24-87): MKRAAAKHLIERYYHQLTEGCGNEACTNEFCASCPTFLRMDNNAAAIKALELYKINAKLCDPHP

fold reduction of affinity against unphosphorylated hRpn10 322-366: 10 fold
Substance: E6AP AZUL (amino-terminal zinc-binding domain of ubiquitin E3a ligase), amino acids 24 to 87 (from UniProt Q05086 24-87) (domain or fragment)
